Molecular target: the molecule itself
Test: SEC

B1: His(6)-Rrp47p (natural protein, S. cerevisiae, UniProt P38801 1-184, looked up)
chain: MEDIEKIKPYVRSFSKALDELKPEIEKLTSKSLDEQLLLLSDERAKLELINRYAYVLSSLMFANMKVLGVKDMSPILGELKRVKSYMDKAKQYDNRITKSNEKSQAEQEKAKNIISNVLDGNKNQFEPSISRSNFQGKHTKFENDELAESTTTKIIDSTDHIRKASSKKSKRLDKVGKKKGGKK
stoichiometry N: 6
